Marks after values point to notes of the source that are not given here.
How the values were obtained:
[1] = tested on: Experimental Autoimmune Encephalomyelitis; experiment: Experimental Autoimmune Encephalomyelitis (EAE); format: in vivo, SJL/J mice; conditions: for Day of Onset (±SEM): p < 0.001; for Peak Clinical Score (±SEM): scale 0-5
Experimental: The EAE model (Brown et al., Lab. Invest. 45:278, 1981) was conducted as follows. Female SJL/J mice (6 weeks old) were randomized into 3 groups of 10. 2 mL of Myelin Proteolipid Peptide (PLP) was emulsified in 3 mL of Complete Freund's Adjuvant containing an additional 20 mg of M. tuberculosis H37Ra. On day 0, mice were immunized subcutaneously in the base of the tail and footpad with a total of 60 μg PLP. They were also given […] pertussis toxin i.p. on days 0 and 2. MP8 or saline control was administered s.c. every day from day −3 to day 20. Progression of the disease was measured up to day 21 on the following scale: 0≡normal; 1≡limp tail or hind limb weakness; 2≡both limp tail and hind limb weakness; 3≡partial hind limb paralysis; 4≡complete hind limb paralysis; 5≡moribund or sacrificed.

[2] = tested on: human IL-1 type 1 and type 2 receptors; experiment: FRET peptide cleavage assay, IL-1 receptor peptides; format: biochemical
Experimental: (§1) Cytokine-specific proteolytic activity can rapidly be quantified by Fluorescence Resonance Energy Transfer (FRET). Peptides having the amino acid sequence of the TNF Receptor or other protein substrates are labeled at opposite ends with a fluorescence emitter and a fluorescence quencher. The peptide is then incubated with a source of receptor cleaving enzyme, and fluorescence is measured. The quenching group normally absorbs fluorescence from the emitter. But enzymatic cleavage of the peptide decouples the quenching group, and fluorescence emission increases proportionally.
(§2) The peptides used as substrates in the cleavage assay were taken from the known sites of proteolytic cleavage of the whole protein. The peptides were labeled with the fluorescence emitter (Edans-●) at the C-terminal, and the quenching hapten (Dabcyl-▴) at the N-terminal.
(§3) The assay is conducted in the presence of the metal cations Zn^++ (0.1 mM) and Ca^++ (2 mM), and corrected for cleavage in the presence of EDTA (20 mM). Dependence on divalent cations confirms that the enzyme activity measured in this assay is a metalloprotease. The assay mixture also contains a cocktail of protease inhibitors and bovine albumin. Cleavage is measured as the net change in fluorescence emission after incubating the enzyme with the peptide at 37° C. for 3 hours. […]

p55 TNF Receptor = p55 TNF Receptor (Homo sapiens, UniProt P19438); experiment: FRET peptide cleavage assay, p55 TNF receptor peptide; format: biochemical; conditions: Zn++ 0.1 mM, Ca++ 2 mM, corrected for EDTA, 37° C. for 3 hours
Experimental: as §1, §2, §3

TNF receptor [3] = experiment: Cell surface cleavage assay, release of TNF receptor isoforms by enzyme immunoassay; format: cell-based; conditions: 25 μg protein with 2.5×10^6 cells; (treated—untreated)/untreated
Experimental: To determine cell surface cleavage activity, 25 μg of MP8-FL2 was combined with 2.5×10^6 cells. Release of both TNF receptor isoforms was determined by enzyme immunoassay as (treated—untreated)/untreated.

[4] = Clearance of MP8 protein from the circulation by dot-blot analysis; format: in vivo; conditions: mice
IL-6 Receptor = IL-6 Receptor (Homo sapiens, UniProt P08887); experiment: FRET peptide cleavage assay, IL-6 receptor peptide; format: biochemical; conditions: Zn++ 0.1 mM, Ca++ 2 mM, corrected for EDTA, 37° C. for 3 hours
Experimental: as §1, §2, §3

[5] = Stability of receptor cleaving activity upon storage (FRET assay); format: physicochemical; conditions: a month of storage at 4° C. or −70° C., purified form
Experimental: The stability of MP8 was determined by storing aliquots of MP8 at 4° C. or −70°. Aliquots were taken out periodically to determine enzyme cleaving activity in the fluorescence resonance energy transfer peptide cleavage assay.

TNF receptor [6] = experiment: TNF receptor release in vivo after subcutaneous injection; set-up: species or system Balb/c mice
Experimental: To determine if the enzyme cleaves TNF receptors in vivo, 100,000 FU of purified MP8 was injected subcutaneously as a 500 μL bolus into female Balb/c mice. Control mice were injected with saline. Serum was sampled periodically, and tested for cytokine levels using ELISA kits from R&D System.

[7] = tested on: carrageenan-induced paw edema; experiment: Carrageenan-induced paw edema; format: in vivo, Sprague Dawley rats; conditions: given one hour before carrageenan; paw volume three hours later; MP8 subcutaneously, indomethacin by mouth
Experimental: Based on the standard model (Winter et al., Proc Soc Exp Biol Med 111:544, 1962; Hansra et al., Inflammation 24:141, 2000), the experiment was performed as follows. Male Sprague Dawley rats were randomized by weight into three treatment groups. The animals were administered MP8 or control solution subcutaneously, or indomethacin by mouth. One hour later, they were injected in the left hind paw with a sterile solution of 1% carrageenan suspension in water, in order to induce swelling. Three hours later, the volume of the injected paw was measured by water displacement in a water plethysmograph (mean±SEM; 10 animals per group).
Male Sprague Dawley rats were administered with test protein or indomethacin (anti-inflammatory control), and then challenged in a hind footpad with carrageenan, as in Example 12.

p75 TNF Receptor = target: T1, p75 TNF Receptor (Homo sapiens, UniProt P20333); experiment: Cleavage of cell surface p75 TNF receptor on THP-1 cells; format: cell-based; conditions: 45 minutes at 37° C.
T1 construct: endogenous in cells; host or cells: THP-1
T1 sequence (P20333 23-461): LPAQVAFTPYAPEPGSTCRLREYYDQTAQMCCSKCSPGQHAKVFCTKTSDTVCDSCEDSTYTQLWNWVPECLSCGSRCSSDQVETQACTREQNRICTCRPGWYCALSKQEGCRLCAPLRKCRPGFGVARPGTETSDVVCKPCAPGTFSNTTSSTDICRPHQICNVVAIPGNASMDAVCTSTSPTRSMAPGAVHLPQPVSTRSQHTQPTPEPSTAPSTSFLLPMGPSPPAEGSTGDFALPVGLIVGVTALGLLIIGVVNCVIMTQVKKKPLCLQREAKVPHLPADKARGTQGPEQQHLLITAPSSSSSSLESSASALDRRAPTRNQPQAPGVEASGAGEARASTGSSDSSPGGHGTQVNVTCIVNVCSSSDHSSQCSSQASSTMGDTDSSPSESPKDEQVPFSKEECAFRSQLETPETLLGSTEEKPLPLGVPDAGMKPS
Experimental: This cell line expresses both the p55 TNF receptor and the p75 TNF receptor. After incubating for 45 minutes at 37° C., the cells were washed, immunostained for cell surface receptor, and counted by flow cytometry.

[8] = 100,000 FU s.c. every day from day −3 to day 20
[9] = 300,000 FU s.c. every day from day −3 to day 20

B1: MP8: polypeptide having the sequence of SEQ. ID NO:41 (usually with a HIS tag); cytokine receptor releasing protein expressed in E. coli (protein, listed as Homo sapiens)
chain: WIQRIRHEGNSTVYEWRTGTEPSVVERPHLEELPEQVAEDAIDWGDFGVEAVSEGTDSGISAEAAGIDWGIFPESDSKDPGGDGIDWGDDAVALQITVLEAGTQAPEGVARGPDALTLLEYTETRNQFLDELMELEIFLAQRAVELSEEADVLSVSQFQLAPAILQGQTKEKMVTMVSVLEDLIGKLTSLQLQHLFMILASPRYVDRVTEFLQQKLKQSQLLALKKELMVQKQQEALEEQAALEPKLDLLLEKTKELQKLIEADISKRYSGRPVNLMGTSL
modifications: HIS tag
notes: ID NO:41 (usually with a HIS tag); cytokine receptor releasing protein expressed in E. coli
- Incidence of Disease [1, 8]: 5 out of 7
- Day of Onset (±SEM) [1, 8]: 18.0 ± 0.8 ^a
- Peak Clinical Score (±SEM) [1, 8]: 2.4 ± 0.7
- Incidence of Disease [1, 9]: 3 out of 7
- Day of Onset (±SEM) [1, 9]: 18.0 ± 2.5 ^a
- Peak Clinical Score (±SEM) ([1]; 300,000 FU s.c. every day from day −3 to day 20, p < 0.01): 1.0 ± 0.5 ^b
- emergence of symptoms ([1]; delayed from 12 days): 18 days
- weight gain of treated animals ([1]; mouse, in vivo): continued to show normal weight gain
- cleavage of IL-1 receptor [2]: cleaves
- cleavage of p55 TNF receptor (R1) peptide (p55 TNF Receptor): cleaves
- cleavage and release of TNF receptor from the cell surface (TNF receptor [3]): cause cleavage and release of TNF receptor, with preference for the R1 (p55) isoform
- first clearance half-time from the circulation [4]: ~39 h
- cleavage of IL-6 receptor peptide (IL-6 Receptor): high activity
- loss of peptide cleaving activity on storage [5]: no detectable loss of activity
- persistence of the effect after administration (TNF receptor [6]; 100,000 FU subcutaneously): 48 h
- persistence of released receptors in the circulation (TNF receptor [6]; other experiments): at least 6 days
- inhibition of edema formation [7]: 62%
- cleavage of p75 TNF receptor on the surface of cells (p75 TNF Receptor): cleaves
